This passage reports percent of parent (% of binding to Fn) results from publication PMC4169507.

The target of the assay is fibronectin, P02751. Description: bacterial adherence to fibronectin-coated 96-well plates (colony counting). Particulars: chain shown with the change; plates coated with 25 µg/ml of fibronectin; in the presence of arabinose; parent: 100; read off a plot.
Sequence of fibronectin, P02751 (P02751 32-2477): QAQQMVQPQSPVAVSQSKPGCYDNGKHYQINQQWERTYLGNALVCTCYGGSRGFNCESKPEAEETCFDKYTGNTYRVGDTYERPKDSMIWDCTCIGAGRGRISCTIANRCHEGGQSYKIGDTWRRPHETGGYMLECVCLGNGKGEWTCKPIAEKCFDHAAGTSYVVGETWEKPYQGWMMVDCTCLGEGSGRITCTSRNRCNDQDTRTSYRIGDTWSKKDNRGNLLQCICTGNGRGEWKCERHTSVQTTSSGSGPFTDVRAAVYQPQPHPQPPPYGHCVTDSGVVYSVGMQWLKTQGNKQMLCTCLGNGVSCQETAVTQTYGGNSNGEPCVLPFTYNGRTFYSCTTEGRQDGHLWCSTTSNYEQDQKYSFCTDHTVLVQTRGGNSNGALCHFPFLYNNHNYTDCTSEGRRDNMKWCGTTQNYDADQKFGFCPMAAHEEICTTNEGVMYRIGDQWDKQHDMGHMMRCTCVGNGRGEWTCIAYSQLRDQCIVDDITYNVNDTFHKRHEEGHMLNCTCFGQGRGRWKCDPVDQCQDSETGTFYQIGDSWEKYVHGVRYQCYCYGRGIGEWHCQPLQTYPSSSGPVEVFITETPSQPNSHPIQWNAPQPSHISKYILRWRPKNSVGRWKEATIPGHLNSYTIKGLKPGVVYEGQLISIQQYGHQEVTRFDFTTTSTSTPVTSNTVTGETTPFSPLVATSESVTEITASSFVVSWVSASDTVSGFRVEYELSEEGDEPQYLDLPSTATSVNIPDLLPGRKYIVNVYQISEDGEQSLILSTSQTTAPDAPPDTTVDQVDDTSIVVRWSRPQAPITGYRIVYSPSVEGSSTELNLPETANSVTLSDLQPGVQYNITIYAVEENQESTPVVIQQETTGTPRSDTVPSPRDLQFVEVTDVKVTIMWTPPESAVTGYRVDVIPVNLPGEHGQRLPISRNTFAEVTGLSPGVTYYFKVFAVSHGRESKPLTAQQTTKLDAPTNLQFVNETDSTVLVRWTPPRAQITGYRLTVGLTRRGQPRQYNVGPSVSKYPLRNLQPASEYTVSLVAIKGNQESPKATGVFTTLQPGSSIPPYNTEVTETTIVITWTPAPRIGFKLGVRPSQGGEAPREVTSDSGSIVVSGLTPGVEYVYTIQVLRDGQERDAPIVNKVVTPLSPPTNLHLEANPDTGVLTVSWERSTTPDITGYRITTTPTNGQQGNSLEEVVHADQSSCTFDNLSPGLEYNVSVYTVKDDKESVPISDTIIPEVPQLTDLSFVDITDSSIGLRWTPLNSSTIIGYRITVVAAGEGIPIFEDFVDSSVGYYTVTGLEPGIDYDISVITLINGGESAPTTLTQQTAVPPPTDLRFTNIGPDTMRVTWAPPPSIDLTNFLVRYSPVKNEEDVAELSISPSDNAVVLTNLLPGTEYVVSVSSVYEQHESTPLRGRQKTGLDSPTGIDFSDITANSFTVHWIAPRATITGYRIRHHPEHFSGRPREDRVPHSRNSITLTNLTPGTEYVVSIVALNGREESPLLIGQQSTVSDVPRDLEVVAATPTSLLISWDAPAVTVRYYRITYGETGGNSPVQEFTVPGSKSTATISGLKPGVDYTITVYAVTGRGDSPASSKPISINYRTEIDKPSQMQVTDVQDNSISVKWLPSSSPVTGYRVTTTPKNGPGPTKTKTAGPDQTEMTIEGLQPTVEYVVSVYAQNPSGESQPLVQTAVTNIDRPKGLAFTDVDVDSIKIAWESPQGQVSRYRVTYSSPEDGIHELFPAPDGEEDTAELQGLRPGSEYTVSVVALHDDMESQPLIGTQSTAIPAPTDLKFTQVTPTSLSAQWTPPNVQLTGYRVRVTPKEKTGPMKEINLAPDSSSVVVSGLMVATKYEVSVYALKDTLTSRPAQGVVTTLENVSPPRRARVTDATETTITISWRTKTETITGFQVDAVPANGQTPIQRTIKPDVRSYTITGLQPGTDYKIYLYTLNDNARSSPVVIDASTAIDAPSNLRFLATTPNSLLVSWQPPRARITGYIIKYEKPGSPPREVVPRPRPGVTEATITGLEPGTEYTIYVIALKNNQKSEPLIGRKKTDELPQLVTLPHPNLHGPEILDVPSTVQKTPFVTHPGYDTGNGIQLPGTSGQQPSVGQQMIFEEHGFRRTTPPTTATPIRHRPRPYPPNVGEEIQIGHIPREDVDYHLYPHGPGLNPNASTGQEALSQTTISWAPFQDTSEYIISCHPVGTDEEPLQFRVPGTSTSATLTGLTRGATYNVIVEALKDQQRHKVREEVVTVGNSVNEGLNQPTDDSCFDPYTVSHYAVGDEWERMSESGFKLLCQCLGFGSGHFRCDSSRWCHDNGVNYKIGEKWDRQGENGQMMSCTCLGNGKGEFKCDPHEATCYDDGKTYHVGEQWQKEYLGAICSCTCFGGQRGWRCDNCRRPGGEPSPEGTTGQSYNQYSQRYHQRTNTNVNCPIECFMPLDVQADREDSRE

B1: AafA, major subunit of AAF/II, on wild type EAEC 042 Q43A (protein)
chain: VAKTATSTITVVNFCDITITPATNRDVNVDRSANIDLSFTIRAPQRCADAGMRIKAWGEANHGQLLIKPQGGNKSAGFTLASPRFSYIPNNPANIMNGFVLTNPGVYQLGMQGSITPAIPLRPGLYEVVLNAELVTN
Take B1: the percent of parent (% of binding to Fn) is 110.

B2: AafA, major subunit of AAF/II, on wild type EAEC 042 T18I (protein)
chain: VAKTATSTITVVNFCDIIITPATNRDVNVDRSANIDLSFTIRQPQRCADAGMRIKAWGEANHGQLLIKPQGGNKSAGFTLASPRFSYIPNNPANIMNGFVLTNPGVYQLGMQGSITPAIPLRPGLYEVVLNAELVTN
For the molecule B2, the percent of parent (% of binding to Fn) came out at 65.
